B1: Syndecan-2 (Rattus norvegicus (Rat)), P34900 (parent)
chain: MQRAWILLTLGLMACVSAETRAELTSDKDMYLDSSSIEEASGLYPIDDDDYSSASGSGAYEDKGSPDLTTSQLIPRISLTSAAPEVETMTLKTQSITPTQTESPEETDKKEFEISEAEEKQDPAVKSTDVYTEKHSDNLFKRTEVLAAVIAGGVIGFLFAIFLILLLVYRMRKKDEGSYDLGERKPSSAAYQKAPTKEFYA

Variants of: B1
Details: with nf1_human NF1, P21359
nf1_human NF1, P21359, sequence (P21359 whole entry): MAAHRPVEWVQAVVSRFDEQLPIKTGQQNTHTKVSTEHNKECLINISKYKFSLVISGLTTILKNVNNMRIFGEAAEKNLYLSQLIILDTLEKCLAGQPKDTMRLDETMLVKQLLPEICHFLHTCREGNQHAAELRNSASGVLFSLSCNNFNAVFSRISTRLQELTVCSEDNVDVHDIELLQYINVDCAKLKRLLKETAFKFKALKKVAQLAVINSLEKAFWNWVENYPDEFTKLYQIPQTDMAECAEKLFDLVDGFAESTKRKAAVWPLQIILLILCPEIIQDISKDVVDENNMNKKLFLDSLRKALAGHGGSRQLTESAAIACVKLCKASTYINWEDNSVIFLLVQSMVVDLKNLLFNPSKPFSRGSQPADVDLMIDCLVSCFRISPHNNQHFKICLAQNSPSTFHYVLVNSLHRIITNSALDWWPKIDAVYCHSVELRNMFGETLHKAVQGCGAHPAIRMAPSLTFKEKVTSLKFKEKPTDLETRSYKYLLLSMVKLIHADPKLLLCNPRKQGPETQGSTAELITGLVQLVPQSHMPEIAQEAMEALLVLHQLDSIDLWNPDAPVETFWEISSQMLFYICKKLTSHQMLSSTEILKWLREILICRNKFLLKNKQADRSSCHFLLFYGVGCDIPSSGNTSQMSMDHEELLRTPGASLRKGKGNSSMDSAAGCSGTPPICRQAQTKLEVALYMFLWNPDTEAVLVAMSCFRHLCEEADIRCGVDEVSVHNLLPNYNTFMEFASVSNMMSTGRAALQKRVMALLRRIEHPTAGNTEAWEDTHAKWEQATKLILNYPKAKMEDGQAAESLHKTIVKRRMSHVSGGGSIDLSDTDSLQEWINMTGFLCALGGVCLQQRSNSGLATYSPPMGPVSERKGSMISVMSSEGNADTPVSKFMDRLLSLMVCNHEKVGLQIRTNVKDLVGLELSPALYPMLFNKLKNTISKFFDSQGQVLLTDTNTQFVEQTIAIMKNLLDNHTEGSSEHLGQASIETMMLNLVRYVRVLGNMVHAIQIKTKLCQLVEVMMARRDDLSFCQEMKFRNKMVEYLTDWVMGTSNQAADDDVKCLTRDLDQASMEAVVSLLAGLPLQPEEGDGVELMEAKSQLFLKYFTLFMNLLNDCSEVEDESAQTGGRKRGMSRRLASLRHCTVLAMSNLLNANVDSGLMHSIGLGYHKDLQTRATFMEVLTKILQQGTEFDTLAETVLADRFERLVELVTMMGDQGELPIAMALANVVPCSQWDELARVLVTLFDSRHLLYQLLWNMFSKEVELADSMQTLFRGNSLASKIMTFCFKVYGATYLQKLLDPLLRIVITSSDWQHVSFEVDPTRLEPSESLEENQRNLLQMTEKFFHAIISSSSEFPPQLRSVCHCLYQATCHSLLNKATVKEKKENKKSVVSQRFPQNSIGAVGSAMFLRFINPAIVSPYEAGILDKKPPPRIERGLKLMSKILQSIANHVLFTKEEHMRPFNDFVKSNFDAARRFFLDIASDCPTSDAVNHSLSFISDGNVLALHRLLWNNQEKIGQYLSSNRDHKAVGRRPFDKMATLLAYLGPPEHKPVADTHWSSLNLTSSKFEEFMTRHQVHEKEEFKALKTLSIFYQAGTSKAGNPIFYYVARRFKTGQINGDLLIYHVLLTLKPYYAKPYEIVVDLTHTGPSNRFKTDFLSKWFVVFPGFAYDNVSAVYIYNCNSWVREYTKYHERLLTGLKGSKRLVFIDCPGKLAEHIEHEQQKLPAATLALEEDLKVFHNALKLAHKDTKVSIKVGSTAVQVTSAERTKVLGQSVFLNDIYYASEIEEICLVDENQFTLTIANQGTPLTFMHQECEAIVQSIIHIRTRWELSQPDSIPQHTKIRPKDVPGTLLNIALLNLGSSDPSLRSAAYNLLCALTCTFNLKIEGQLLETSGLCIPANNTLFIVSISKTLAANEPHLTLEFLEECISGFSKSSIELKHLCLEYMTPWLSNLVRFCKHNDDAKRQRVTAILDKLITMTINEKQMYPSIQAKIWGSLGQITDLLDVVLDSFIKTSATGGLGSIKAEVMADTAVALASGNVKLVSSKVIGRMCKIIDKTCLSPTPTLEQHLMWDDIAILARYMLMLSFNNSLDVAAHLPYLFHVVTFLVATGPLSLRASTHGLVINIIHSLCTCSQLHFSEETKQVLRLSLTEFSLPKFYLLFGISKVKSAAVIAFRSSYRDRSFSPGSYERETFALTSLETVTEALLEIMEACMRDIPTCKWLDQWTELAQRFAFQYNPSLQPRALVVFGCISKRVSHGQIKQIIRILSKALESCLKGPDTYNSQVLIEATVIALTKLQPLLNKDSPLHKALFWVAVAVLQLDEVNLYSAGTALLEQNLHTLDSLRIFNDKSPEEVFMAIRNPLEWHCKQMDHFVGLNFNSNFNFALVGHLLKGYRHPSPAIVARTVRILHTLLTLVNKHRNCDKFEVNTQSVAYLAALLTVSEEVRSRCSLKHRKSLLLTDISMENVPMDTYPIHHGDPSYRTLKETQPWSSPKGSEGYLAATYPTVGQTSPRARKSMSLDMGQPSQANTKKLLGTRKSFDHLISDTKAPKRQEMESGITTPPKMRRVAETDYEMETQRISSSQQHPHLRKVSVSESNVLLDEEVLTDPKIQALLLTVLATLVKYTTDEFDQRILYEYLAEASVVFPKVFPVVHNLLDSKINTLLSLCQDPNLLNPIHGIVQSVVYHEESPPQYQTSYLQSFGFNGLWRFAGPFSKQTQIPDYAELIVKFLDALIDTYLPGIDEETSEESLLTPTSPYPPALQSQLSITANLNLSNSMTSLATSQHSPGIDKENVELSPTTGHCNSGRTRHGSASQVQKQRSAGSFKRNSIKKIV

effect of a mutation on the interaction | Variant
decreasing interaction | MQRAWILLTLGLMACVSAETRAELTSDKDMYLDSSSIEEASGLYPIDDDDYSSASGSGAYEDKGSPDLTTSQLIPRISLTSAAPEVETMTLKTQSITPTQTESPEETDKKEFEISEAEEKQDPAVKSTDVYTEKHSDNLFKRTEVLAAVIAGGVIGFLFAIFLILLLVYRMRKAAEGSYDLGERKPSSAAYQKAPTKEFYA [K174A;D175A]
increasing interaction | MQRAWILLTLGLMACVSAETRAELTSDKDMYLDSSSIEEASGLYPIDDDDYSSASGSGAYEDKGSPDLTTSQLIPRISLTSAAPEVETMTLKTQSITPTQTESPEETDKKEFEISEAEEKQDPAVKSTDVYTEKHSDNLFKRTEVLAAVIAGGVIGFLFAIFLILLLVYRMRKKDEGAADLGERKPSSAAYQKAPTKEFYA [S178A;Y179A]
decreasing interaction | MQRAWILLTLGLMACVSAETRAELTSDKDMYLDSSSIEEASGLYPIDDDDYSSASGSGAYEDKGSPDLTTSQLIPRISLTSAAPEVETMTLKTQSITPTQTESPEETDKKEFEISEAEEKQDPAVKSTDVYTEKHSDNLFKRTEVLAAVIAGGVIGFLFAIFLILLLVYRMRKKDAASYDLGERKPSSAAYQKAPTKEFYA [E176A;G177A]
decreasing interaction | MQRAWILLTLGLMACVSAETRAELTSDKDMYLDSSSIEEASGLYPIDDDDYSSASGSGAYEDKGSPDLTTSQLIPRISLTSAAPEVETMTLKTQSITPTQTESPEETDKKEFEISEAEEKQDPAVKSTDVYTEKHSDNLFKRTEVLAAVIAGGVIGFLFAIFLILLLVYRMAAKDEGSYDLGERKPSSAAYQKAPTKEFYA [R172A;K173A]

Variants of: B1
Details: with nf1_human NF1, P21359
Remark: another data set of the same source

effect of a mutation on the interaction | Variant
decreasing interaction | MQRAWILLTLGLMACVSAETRAELTSDKDMYLDSSSIEEASGLYPIDDDDYSSASGSGAYEDKGSPDLTTSQLIPRISLTSAAPEVETMTLKTQSITPTQTESPEETDKKEFEISEAEEKQDPAVKSTDVYTEKHSDNLFKRTEVLAAVIAGGVIGFLFAIFLILLLVYRMRKKDEGAADLGERKPSSAAYQKAPTKEFYA [S178A;Y179A]
